Measured values taken from patent US20160289698A1 (TRUSTEES OF DARTMOUTH COLLEGE, published 2016).

Legend:
Experiment in all cases: yeast two-hybrid (LexA-KMD bait, B42-ARR prey, X-gal)
ARR12 = target: T1, ARR12 (Arabidopsis, UniProt P62598 1-596)
T1 construct: YFP^N or YFP^C fusion of the full-length cDNA in BiFC; also called AtARR12; type-B response regulator AtARR12
T1 sequence (looked up): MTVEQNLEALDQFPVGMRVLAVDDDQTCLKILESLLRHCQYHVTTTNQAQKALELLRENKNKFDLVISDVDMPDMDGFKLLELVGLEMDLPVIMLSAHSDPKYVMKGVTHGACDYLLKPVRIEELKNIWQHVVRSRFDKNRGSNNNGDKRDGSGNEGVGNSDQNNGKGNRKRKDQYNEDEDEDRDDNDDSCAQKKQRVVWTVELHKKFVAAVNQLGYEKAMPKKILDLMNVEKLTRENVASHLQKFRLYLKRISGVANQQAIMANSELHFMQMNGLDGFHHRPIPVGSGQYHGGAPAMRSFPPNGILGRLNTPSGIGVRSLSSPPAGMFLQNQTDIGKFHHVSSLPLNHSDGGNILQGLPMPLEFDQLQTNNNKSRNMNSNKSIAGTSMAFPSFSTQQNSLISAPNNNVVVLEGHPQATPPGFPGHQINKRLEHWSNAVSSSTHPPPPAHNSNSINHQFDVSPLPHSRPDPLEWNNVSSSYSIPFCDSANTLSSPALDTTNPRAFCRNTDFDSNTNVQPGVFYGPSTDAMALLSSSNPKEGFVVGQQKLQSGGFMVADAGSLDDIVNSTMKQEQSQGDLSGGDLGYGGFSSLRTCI
Text: (§1) The DUPLEX-A™ system (OriGene Technologies) was used for yeast two-hybrid analysis of interactions. KMD cDNAs were cloned into the pGilda bait vector, which produces an in-frame fusion with the LexA DNA-binding domain. Type-B ARR coding sequences were cloned into the pJG4-5 prey vector, which produces a B42 activation domain. The yeast strain EGY48 (MATa, trp1, his3, ura3, leu2::6 LexAop-LEU2) that contains the lacZ reporter plasmid pSH18-34 was transformed with the appropriate “bait” and “prey” plasmids. Interactions were tested on 5-bromo-4-chloro-3-indolyl-p-D-galactopyranoside (X-gal) medium (Ryu, et al. (2005) Cell 120(3): 395-406).
(§2) The KMD proteins also interacted with ARR20 (type-B ARR subfamily-3), but not with ARR19 (subfamily-2) and ARR21 (subfamily-3). […] All four KMD proteins interacted with both ARR1 and ARR12 in a BiFC assay. Strong fluorescence was detected in the nuclei of cells, consistent with the subcellular localization of the type-B ARRs (Hwang & Sheen J (2001) Nature 413(6854):383-389; Mason, et al. (2004) Plant Physiol. 135(2):927-937).

ARR10 = target: T2, ARR10 (Arabidopsis, UniProt O49397 1-552, limits assumed)
T2 construct: also called type-B response regulator ARR10
T2 sequence (looked up): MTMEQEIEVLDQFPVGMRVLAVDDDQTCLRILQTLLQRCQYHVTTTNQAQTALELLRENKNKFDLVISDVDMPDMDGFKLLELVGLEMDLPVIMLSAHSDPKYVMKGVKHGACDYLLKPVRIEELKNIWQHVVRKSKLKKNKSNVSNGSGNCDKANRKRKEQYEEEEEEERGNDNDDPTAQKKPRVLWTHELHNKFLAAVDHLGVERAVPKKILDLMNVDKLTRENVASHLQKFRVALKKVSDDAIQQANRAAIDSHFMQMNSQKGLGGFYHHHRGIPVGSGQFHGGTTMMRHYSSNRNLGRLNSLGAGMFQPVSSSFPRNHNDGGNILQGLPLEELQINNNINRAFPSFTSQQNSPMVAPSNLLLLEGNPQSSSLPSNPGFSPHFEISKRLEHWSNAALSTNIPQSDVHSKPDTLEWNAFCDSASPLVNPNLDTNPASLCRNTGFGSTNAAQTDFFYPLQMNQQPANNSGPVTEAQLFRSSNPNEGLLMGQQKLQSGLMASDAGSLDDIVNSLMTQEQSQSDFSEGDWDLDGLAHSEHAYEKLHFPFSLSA
Text: as §1, §2

ARR19 (subfamily-2) = target: T3, ARR19 (subfamily-2) (Arabidopsis, UniProt Q9M9B9 1-407, limits assumed)
T3 sequence (looked up): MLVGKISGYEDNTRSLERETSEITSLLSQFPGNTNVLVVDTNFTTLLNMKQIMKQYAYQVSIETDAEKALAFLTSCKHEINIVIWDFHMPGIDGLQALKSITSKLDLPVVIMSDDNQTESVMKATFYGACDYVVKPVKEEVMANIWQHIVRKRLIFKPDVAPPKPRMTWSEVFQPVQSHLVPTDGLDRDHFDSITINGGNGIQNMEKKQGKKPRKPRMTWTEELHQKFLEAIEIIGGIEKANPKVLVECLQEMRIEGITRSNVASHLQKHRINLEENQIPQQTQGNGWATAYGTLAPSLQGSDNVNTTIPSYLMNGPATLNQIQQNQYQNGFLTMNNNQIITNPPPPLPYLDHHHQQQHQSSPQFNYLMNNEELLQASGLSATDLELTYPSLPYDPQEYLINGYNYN
Text: as §1, §2

[1] = target: T4, ARR20 (type-B ARR subfamily-3) (Arabidopsis, UniProt Q9LZJ8 1-426, limits assumed)
T4 sequence (looked up): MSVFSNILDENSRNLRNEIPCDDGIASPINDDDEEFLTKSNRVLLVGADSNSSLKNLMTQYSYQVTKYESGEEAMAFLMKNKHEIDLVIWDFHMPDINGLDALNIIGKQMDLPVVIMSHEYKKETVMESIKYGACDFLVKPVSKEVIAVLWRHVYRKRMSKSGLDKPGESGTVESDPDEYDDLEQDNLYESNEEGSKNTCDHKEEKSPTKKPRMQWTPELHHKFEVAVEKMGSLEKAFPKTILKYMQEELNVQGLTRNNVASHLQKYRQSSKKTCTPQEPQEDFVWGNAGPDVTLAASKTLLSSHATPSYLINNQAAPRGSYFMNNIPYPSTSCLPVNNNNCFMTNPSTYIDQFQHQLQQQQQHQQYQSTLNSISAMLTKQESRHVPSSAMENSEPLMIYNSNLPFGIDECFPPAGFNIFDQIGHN
Text: as §1, §2

B1: KISS ME DEADLY 1 (KMD1) (other, Arabidopsis, UniProt Q9M8L2 1-354, looked up)
chain: MELIPNLPDDVARECLLRSSYQQFPVIASVCRAWNREVSLSQFLHQRKASRHSQELLILSQARVDPAGSGKIIATPEYRISVLESGSGLWTELPPIPGQTKGLPLFCRLVSVGSDLIVLGGLDPITWQAHDSVFVFSFLTSKWRVGATMPGVRRSFFGCASDSDRTVLVAGGHNEEKCALTSAMVYDVSEDKWTFLPDMARERDECKAVFHAGRFHVIGGYATEEQGQFSKTAESFDVSTWEWGPLTEDFLDDTGDTVSPPTCVAGGDLYACWGGDVMMFLNDKWQKVGQIPADVYNVTYVAVRPGMLIVIGNGKALAGYGEATVGYICDLSSSRWVKLETHGGHVQAGCFLEV
notes: Full-length protein; also called At1g80440
- binding result (ARR12): binds
- binding result (ARR10): binds
- binding result (ARR19 (subfamily-2)): no binding
- binding result [1]: binds

B2: KISS ME DEADLY 2 (KMD2) (other, Arabidopsis, UniProt Q9LMR5 1-359, looked up)
chain: MELIPDLPETVAYECLLRSSYKQFPLMASVCKLWQREISLSDFFRHRKASGHSQELVVLSQARVDPVKELVSGNKTIPTPVYRISVLELGTGLRSELPPVPGHSNGLPLFCRLVSVGSDLVVLCGLDPVTWRTSDSVFVFSFLTSTWRVGKSMPGGPRSFFACASDSQRNVFVAGGHDEDKNAMMSALVYDVAEDRWAFLPDMGRERDECTAIFHAGKFHVIGGYSTEEQGQFSKTAESFDVTTWRWSPQGEEFLSSEMTMWPPICAAGENGDLYACCRRDLMMMKDDTWYKVGNLPADVCNVSYVAIRRSGNLVVIGSARYGEPSVGYNWDMSNSRWLKLETHDKYEGHVQAGCFLEI
notes: Full-length protein; LexA fusion in yeast two-hybrid, YFP^N or YFP^C fusion in BiFC; also called At1g15670
- binding result (ARR12): binds
- binding result (ARR10): binds
- binding result (ARR19 (subfamily-2)): no binding
- binding result [1]: binds
